{"source": "paper PMC11236828", "about": "(Bioresources and Bioprocessing, 2024)", "molecules": {"B1": {"name": "Formate oxidase (FOx) (Aspergillus oryzae RIB40) (protein)", "chain": "ATDGSHFDFVIVGGGTAGNTVAGRLAENPNVTVLIVEAGIGNPEDIPEITTPSSAMDLRNSKYDWAYKTTMVRRDDYERIEKPNTRGKTLGGSSSLNYFTWVPGHKATFDQWEEFGGKEWTWDPLVPYLRKSATYHDDPRLYSPELEKIGGGGPIPISHAELIDEMAPFRENLTKAWKSMGQPLIENIYDGEMDGLTHCCDTIYRGQRSGSFLFVKNKPNITIVPEVHSKRLIINEADRTCKGVTVVTAAGNELNFFADREVILSQGVFETPKLLMLSGIGPTRELSRHGINTIVDSRHVGQNLMDHPGVPFVLRVKDGFGMDDVLLRHGPKRDAVVSAYNKNRSGPVGSGLLELVGFPRIDKYLEKDAEYRKAKAANGGKDPFSPLGQPHFELDFVCMFGTAFQWHFPTPKTGDHLTVVVDLVRPISDPGEVTLNSADPFQQPNINLNFFANDLDIIAMREGIRFSYDLLFKGEGFKDLVESEYPWEMPLDSDKEMHRAVLDRCQTAFHPTGTARLSKNIDQGVVDPKLKVHGIKKLRVADASVIPIIPDCRIQNSVYAVGEKCADMIKAEHKDLY"}}, "key": {"Formate oxidase (FOx)": {"biological_target": "T1, Formate oxidase (FOx) (Aspergillus oryzae, UniProt Q2UD26)", "T1 construct": "gene AO090012000349; synthetic gene in pET28a(+) (NdeI-HindIII), expressed in E. coli BL21(DE3), purified on Ni-Sepharose; His tag cleavage not mentioned; contains FAD / 8-formyl FAD", "T1 sequence (Q2UD26 2-578)": "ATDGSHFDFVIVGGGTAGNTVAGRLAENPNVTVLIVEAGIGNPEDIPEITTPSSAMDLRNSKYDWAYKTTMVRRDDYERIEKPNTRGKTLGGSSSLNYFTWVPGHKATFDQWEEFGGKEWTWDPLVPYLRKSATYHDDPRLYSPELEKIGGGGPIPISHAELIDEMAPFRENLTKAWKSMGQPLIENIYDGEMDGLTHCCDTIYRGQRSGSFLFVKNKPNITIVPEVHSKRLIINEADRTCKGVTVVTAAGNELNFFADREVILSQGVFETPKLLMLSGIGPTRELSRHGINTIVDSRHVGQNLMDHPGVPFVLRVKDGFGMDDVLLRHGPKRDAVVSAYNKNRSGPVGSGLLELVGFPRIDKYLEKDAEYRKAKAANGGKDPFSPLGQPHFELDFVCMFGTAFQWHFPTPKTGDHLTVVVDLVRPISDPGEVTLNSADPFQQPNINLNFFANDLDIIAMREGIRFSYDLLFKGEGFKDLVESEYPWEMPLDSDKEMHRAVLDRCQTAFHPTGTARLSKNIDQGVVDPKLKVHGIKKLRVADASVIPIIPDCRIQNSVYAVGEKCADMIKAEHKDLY", "assay": "UV-visible absorption spectra of purified enzyme", "format": "binding", "details": "4 °C"}, "purified protein": {"substrate": "O=CO", "assay": "purified protein", "details": "50 mM sodium acetate pH 5.0, 25 °C, air oxygen, enzyme 14 h after purification (8-formyl FAD formed)"}}, "data": [{"molecule": "Cc1cc2nc3c(=O)[nH]c(=O)nc-3n(C[C@H](O)[C@H](O)[C@H](O)COP(=O)(O)OP(=O)(O)OC[C@H]3O[C@@H](n4cnc5c(N)ncnc54)[C@H](O)[C@@H]3O)c2cc1C=O", "note": "[8-formyl FAD]", "values": [{"measurement": "UV-visible absorption spectra of purified enzyme", "setting": "Formate oxidase (FOx); formed in situ from bound FAD, 14 h", "result": "conversion of FAD to 8-formyl FAD within the active site of FOx"}]}, {"molecule": "Cc1cc2nc3c(=O)[nH]c(=O)nc-3n(C[C@H](O)[C@H](O)[C@H](O)COP(=O)(O)OP(=O)(O)OC[C@H]3O[C@@H](n4cnc5c(N)ncnc54)[C@H](O)[C@@H]3O)c2cc1C", "note": "[FAD]", "values": [{"measurement": "UV-visible absorption spectra of purified enzyme", "setting": "Formate oxidase (FOx); copurified cofactor, autocatalytically converted to 8-formyl FAD", "result": "conversion of FAD to 8-formyl FAD within the active site of FOx"}]}, {"molecule": "B1", "values": [{"measurement": "Km", "setting": "purified protein", "result": "96 ± 3.1", "unit": "mM"}, {"measurement": "kcat", "setting": "purified protein", "result": 102, "unit": "s⁻¹"}, {"measurement": "kcat/Km", "setting": "purified protein", "result": 1100, "unit": "M⁻¹ s⁻¹"}]}]}
